In US20210355219A1 (HARPOON THERAPEUTICS, published 2021):
One block for each binder: values may come before it.

What was measured:
[1] = target: CD40 on purified human B cells (human, UniProt P25942 21-277); experiment: cell-based or functional assay
C00703 huCD40::Fc [2] = target: T1, C00703 huCD40::Fc (human); experiment: ELISA, immobilized huCD40, purified protein
T1 construct: also called human CD40 protein; immobilized huCD40

C00703 huCD40::Fc [3] = target: T1, C00703 huCD40::Fc; experiment: ELISA, immobilized huCD40; the reference of the shift
C00703 huCD40::Fc [4] = target: T1, C00703 huCD40::Fc; experiment: ELISA, immobilized huCD40; EC50 shift against unmasked anti-CD40

CD40 on purified human B cells, sequence (P25942 21-277): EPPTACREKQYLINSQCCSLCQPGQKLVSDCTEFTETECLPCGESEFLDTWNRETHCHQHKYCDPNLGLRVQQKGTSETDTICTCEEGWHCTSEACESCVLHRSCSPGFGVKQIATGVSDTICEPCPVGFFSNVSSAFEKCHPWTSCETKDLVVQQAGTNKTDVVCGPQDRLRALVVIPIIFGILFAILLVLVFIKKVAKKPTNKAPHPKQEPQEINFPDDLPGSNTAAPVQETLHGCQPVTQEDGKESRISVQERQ
T1 sequence (chain, as listed by the source limits assumed): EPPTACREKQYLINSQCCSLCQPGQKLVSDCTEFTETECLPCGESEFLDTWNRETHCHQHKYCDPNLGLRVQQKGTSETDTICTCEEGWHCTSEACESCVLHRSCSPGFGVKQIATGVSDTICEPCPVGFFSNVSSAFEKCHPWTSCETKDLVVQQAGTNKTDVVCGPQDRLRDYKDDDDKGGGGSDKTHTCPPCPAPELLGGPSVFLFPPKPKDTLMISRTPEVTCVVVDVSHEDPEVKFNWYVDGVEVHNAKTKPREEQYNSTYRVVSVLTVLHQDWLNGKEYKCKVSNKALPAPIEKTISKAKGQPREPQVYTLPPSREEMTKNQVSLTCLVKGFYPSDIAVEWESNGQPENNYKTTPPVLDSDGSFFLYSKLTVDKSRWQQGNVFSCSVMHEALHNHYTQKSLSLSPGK

- Activity shift, B cell activation [1]: 1 fold
- EC50 (M), B cell activation (percentage of CD86 positive B cells, flow cytometry, 48 hours) [1]: 2.1e-11 M
- EC50 (C00703 huCD40::Fc [2]): 0.48 nM
- Binding shift (C00703 huCD40::Fc [3]): 1 fold
B1: Unmasked anti-CD40 C00697, C2764 (aCD40 Heavy Chain GDSE) (antibody, human IgG1, kappa, V domains shown)
VH: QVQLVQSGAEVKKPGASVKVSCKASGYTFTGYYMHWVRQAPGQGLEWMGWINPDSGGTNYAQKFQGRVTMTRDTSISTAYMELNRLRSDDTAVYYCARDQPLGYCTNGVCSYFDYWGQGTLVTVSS
VL: DIQMTQSPSSVSASVGDRVTITCRASQGIYSWLAWYQQKPGKAPNLLIYTASTLQSGVPSRFSGSGSGTDFTLTISSLQPEDFATYYCQQANIFPLTFGGGTKVEIKR
notes: Anti-CD40 light chain without an anti-Alb domain; also called Active mimic C00697, C2764; control active mimic

- Binding shift (C00703 huCD40::Fc [4]): 52 fold
- Activity shift, B cell activation [1]: 2000 fold
- EC50 (C00703 huCD40::Fc [2]): 25 nM
B2: anti-Alb mask070 anti-CD40 C2882, C2764 (aCD40 Heavy Chain GDSE) (bispecific antibody, human IgG1, kappa)
heavy: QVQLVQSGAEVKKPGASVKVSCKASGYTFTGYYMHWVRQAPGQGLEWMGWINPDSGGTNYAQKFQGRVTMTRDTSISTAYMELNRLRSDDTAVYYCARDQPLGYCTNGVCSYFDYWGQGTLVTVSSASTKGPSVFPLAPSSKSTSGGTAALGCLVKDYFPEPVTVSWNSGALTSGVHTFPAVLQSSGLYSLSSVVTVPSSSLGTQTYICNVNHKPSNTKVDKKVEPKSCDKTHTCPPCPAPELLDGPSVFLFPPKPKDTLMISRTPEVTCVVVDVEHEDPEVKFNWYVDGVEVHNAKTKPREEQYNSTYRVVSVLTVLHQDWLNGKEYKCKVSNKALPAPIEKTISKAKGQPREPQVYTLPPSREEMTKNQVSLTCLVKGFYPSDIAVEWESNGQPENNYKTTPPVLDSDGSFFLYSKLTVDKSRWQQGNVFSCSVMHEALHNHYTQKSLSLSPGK
light: EVQLVESGGGLVQPGNSLTLSCAASGFTFSKFGMSWVRQARAASAGQGLEWVSSISGSGRDTLYADSVKGRFTISRDNAKTTLYLQMNSLRPEDTAVYYCTIGGSLSVSSQGTLVTVSSGGGGSGGGSGGGGSGGGSDIQMTQSPSSVSASVGDRVTITCRASQGIYSWLAWYQQKPGKAPNLLIYTASTLQSGVPSRFSGSGSGTDFTLTISSLQPEDFATYYCQQANIFPLTFGGGTKVEIKRTVAAPSVFIFPPSDEQLKSGTASVVCLLNNFYPREAKVQWKVDNALQSGNSQESVTEQDSKDSTYSLSSTLTLSKADYEKHKVYACEVTHQGLSSPVTKSFNRGEC
notes: Non-cleavable linker; Purified by Protein A. Same light chain as m2 but with the GDSE heavy chain C2764; also called C2882 aAlb-CD40-mask070
